Measurements from PMC9482650, “Quantitative fragmentomics allow affinity mapping of interactomes” (Nature Communications, 2022).

T1: APBA1_1, Q02410
T1 sequence (Q02410 651-752, limits assumed, looked up): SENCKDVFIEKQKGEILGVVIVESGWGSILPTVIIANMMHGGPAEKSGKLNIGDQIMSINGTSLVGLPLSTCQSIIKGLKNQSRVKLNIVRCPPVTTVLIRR

T2: APBA1_2, Q02410
T2 sequence (Q02410 742-832, limits assumed, looked up): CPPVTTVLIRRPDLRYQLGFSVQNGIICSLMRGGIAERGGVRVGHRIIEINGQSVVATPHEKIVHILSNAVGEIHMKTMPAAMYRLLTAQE

T3: APBA2_1, Q99767
T3 sequence (Q99767 563-664, limits assumed, looked up): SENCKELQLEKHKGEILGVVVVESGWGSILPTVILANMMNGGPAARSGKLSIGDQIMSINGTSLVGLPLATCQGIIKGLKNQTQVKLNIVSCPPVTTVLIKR

T4: DLG3_2, Q92796
T4 sequence (Q92796 221-321, limits assumed, looked up): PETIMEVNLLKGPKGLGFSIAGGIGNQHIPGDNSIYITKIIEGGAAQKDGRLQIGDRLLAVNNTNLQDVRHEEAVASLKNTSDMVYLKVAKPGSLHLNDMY

T5: GRIP1_3, Q9Y3R0
T5 sequence (Q9Y3R0 247-346, limits assumed, looked up): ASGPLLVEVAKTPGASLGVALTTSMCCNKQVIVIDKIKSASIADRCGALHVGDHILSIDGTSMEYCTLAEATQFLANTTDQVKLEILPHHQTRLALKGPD

T6: GRIP1_5, Q9Y3R0
T6 sequence (Q9Y3R0 568-668, limits assumed, looked up): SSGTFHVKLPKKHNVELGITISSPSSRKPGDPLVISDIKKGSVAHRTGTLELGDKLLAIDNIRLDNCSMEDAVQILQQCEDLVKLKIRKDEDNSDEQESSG

T7: LNX2_2, Q8N448
T7 sequence (Q8N448 334-432, limits assumed, looked up): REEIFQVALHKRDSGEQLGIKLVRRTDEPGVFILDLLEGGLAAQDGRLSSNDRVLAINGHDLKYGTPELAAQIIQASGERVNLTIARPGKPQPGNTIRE

T8: MPP2, Q14168
T8 sequence (Q14168 180-250, limits assumed, looked up): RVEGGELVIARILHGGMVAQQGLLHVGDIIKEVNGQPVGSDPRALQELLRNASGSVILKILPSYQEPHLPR

T9: NHERF3_1, Q5T2W1
T9 sequence (Q5T2W1 4-100, limits assumed, looked up): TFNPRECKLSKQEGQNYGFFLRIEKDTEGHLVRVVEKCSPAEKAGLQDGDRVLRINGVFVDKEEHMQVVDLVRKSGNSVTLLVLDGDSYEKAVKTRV

T10: NHERF3_3, Q5T2W1
T10 sequence (Q5T2W1 238-333, limits assumed, looked up): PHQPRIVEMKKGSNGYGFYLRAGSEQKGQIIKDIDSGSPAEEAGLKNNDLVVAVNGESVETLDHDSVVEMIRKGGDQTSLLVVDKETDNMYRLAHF

T11: RHPN1, Q8TCX5
T11 sequence (Q8TCX5 508-602, limits assumed, looked up): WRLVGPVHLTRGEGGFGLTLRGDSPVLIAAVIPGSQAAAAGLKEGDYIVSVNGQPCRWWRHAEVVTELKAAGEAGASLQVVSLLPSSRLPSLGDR

T12: SYNJ2BP, P57105
T12 sequence (P57105 8-110, limits assumed, looked up): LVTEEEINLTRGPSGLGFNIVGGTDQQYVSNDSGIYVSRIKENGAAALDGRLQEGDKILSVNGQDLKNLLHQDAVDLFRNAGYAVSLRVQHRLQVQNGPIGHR

B1: SLC22A3, O75751 (peptide)
chain: KKTPVSRSHL
B2: KCNJ9, Q92806 (peptide)
chain: LPPPESESKV
B3: SCN4B, Q8IWT1 (peptide)
chain: KAEEKPPSKV
B4: RCN2, Q14257 (peptide)
chain: HDDYFYHDEL

Each binder was assayed against T1, APBA1_1, Q02410 (assay: holdup assay). Details: plain residues with an end cap or a label only (N-terminal biotin on a linker: ado-ado).
Set-up: key: below the threshold = too weak to quantify, mostly under pKd 3.1 to 4

Binder | pKd
B1 | below the threshold
B2 | below the threshold
B3 | below the threshold
B4 | below the threshold

Each binder was assayed against T2, APBA1_2, Q02410 (assay: holdup assay). Details: plain residues with an end cap or a label only (N-terminal biotin on a linker: ado-ado).
Set-up: key: below the threshold = too weak to quantify, mostly under pKd 3.1 to 4

Binder | pKd
B1 | 3.77
B2 | below the threshold
B3 | 3.85
B4 | 3.98

Each binder was assayed against T3, APBA2_1, Q99767 (assay: holdup assay). Details: plain residues with an end cap or a label only (N-terminal biotin on a linker: ado-ado).
Set-up: key: below the threshold = too weak to quantify, mostly under pKd 3.1 to 4

Binder | pKd
B1 | below the threshold
B2 | below the threshold
B3 | below the threshold
B4 | below the threshold

The binders below were run against DLG2_3, Q15700 (assay: holdup assay). Details: plain residues with an end cap or a label only (N-terminal biotin on a linker: ado-ado).
Set-up: key: below the threshold = too weak to quantify, mostly under pKd 3.1 to 4

Binder | pKd
B1 | below the threshold
B2 | 3.7
B3 | below the threshold
B4 | below the threshold

The binders below were run against T4, DLG3_2, Q92796 (assay: holdup assay). Details: plain residues with an end cap or a label only (N-terminal biotin on a linker: ado-ado).
Set-up: key: below the threshold = too weak to quantify, mostly under pKd 3.1 to 4

Binder | pKd
B1 | below the threshold
B2 | 4.23
B3 | below the threshold
B4 | below the threshold

Each binder was assayed against DLG4_1, P78352 (assay: holdup assay). Details: plain residues with an end cap or a label only (N-terminal biotin on a linker: ado-ado).
Sequence of DLG4_1, P78352 (P78352 62-152): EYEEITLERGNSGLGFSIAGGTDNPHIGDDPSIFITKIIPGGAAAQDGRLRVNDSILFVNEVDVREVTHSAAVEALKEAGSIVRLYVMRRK
Set-up: key: below the threshold = too weak to quantify, mostly under pKd 3.1 to 4

Binder | pKd
B1 | 3.55
B2 | below the threshold
B3 | below the threshold
B4 | 3.54

What follows are binders tested against DLG4_2, P78352 (assay: holdup assay). Details: plain residues with an end cap or a label only (N-terminal biotin on a linker: ado-ado).
Sequence of DLG4_2, P78352 (P78352 155-259): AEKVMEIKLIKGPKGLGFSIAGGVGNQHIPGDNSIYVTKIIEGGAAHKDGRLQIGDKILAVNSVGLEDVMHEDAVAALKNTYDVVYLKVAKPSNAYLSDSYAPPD
Set-up: key: below the threshold = too weak to quantify, mostly under pKd 3.1 to 4

Binder | pKd
B1 | below the threshold
B2 | 3.67
B3 | below the threshold
B4 | below the threshold

The binders below were run against FRMPD3, Q5JV73 (assay: holdup assay). Details: plain residues with an end cap or a label only (N-terminal biotin on a linker: ado-ado).
Sequence of FRMPD3, Q5JV73 (Q5JV73 12-100): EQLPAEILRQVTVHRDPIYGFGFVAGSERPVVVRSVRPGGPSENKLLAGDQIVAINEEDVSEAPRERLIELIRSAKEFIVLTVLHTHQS
Set-up: key: below the threshold = too weak to quantify, mostly under pKd 3.1 to 4

Binder | pKd
B1 | below the threshold
B2 | below the threshold
B3 | below the threshold
B4 | below the threshold

These binders were tested against GRID2IP_2, A4D2P6 (assay: holdup assay). Details: plain residues with an end cap or a label only (N-terminal biotin on a linker: ado-ado).
Sequence of GRID2IP_2, A4D2P6 (A4D2P6 272-370): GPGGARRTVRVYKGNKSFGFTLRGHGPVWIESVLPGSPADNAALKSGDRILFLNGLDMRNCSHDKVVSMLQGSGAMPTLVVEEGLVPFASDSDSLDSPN
Set-up: key: below the threshold = too weak to quantify, mostly under pKd 3.1 to 4

Binder | pKd
B1 | 5.18
B2 | below the threshold
B3 | below the threshold
B4 | below the threshold

These binders were tested against T5, GRIP1_3, Q9Y3R0 (assay: holdup assay). Details: plain residues with an end cap or a label only (N-terminal biotin on a linker: ado-ado).
Set-up: key: below the threshold = too weak to quantify, mostly under pKd 3.1 to 4

Binder | pKd
B1 | below the threshold
B2 | below the threshold
B3 | below the threshold
B4 | below the threshold

What follows are binders tested against T6, GRIP1_5, Q9Y3R0 (assay: holdup assay). Details: plain residues with an end cap or a label only (N-terminal biotin on a linker: ado-ado).
Set-up: key: below the threshold = too weak to quantify, mostly under pKd 3.1 to 4

Binder | pKd
B1 | below the threshold
B2 | below the threshold
B3 | below the threshold
B4 | below the threshold

These binders were tested against GRIP2_4, Q9C0E4 (assay: holdup assay). Details: plain residues with an end cap or a label only (N-terminal biotin on a linker: ado-ado).
Sequence of GRIP2_4, Q9C0E4 (Q9C0E4 446-548): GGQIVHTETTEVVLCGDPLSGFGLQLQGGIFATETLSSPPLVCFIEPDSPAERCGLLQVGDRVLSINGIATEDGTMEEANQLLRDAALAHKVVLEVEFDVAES
Set-up: key: below the threshold = too weak to quantify, mostly under pKd 3.1 to 4

Binder | pKd
B1 | below the threshold
B2 | below the threshold
B3 | below the threshold
B4 | below the threshold

Each binder was assayed against GRIP2_5, Q9C0E4 (assay: holdup assay). Details: plain residues with an end cap or a label only (N-terminal biotin on a linker: ado-ado).
Sequence of GRIP2_5, Q9C0E4 (Q9C0E4 544-642): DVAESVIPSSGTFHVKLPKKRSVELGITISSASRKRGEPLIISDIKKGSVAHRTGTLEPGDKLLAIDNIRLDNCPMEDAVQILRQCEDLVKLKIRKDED
Set-up: key: below the threshold = too weak to quantify, mostly under pKd 3.1 to 4

Binder | pKd
B1 | below the threshold
B2 | below the threshold
B3 | below the threshold
B4 | below the threshold

These binders were tested against HTRA1, Q92743 (assay: holdup assay). Details: plain residues with an end cap or a label only (N-terminal biotin on a linker: ado-ado).
Sequence of HTRA1, Q92743 (Q92743 360-477): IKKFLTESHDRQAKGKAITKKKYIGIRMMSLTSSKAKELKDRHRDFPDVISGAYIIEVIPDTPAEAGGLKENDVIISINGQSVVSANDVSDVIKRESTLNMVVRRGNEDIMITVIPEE
Set-up: key: below the threshold = too weak to quantify, mostly under pKd 3.1 to 4

Binder | pKd
B1 | 3.61
B2 | below the threshold
B3 | below the threshold
B4 | 3.98

These binders were tested against IL16_3, Q14005 (assay: holdup assay). Details: plain residues with an end cap or a label only (N-terminal biotin on a linker: ado-ado).
Sequence of IL16_3, Q14005 (Q14005 1107-1207): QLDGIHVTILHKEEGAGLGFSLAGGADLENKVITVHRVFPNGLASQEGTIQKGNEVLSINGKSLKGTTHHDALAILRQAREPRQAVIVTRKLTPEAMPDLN
Set-up: key: below the threshold = too weak to quantify, mostly under pKd 3.1 to 4

Binder | pKd
B1 | below the threshold
B2 | below the threshold
B3 | below the threshold
B4 | below the threshold

What follows are binders tested against Inadl_8, Q8NI35 (assay: holdup assay). Details: plain residues with an end cap or a label only (N-terminal biotin on a linker: ado-ado).
Sequence of Inadl_8, Q8NI35 (Q8NI35 1425-1530): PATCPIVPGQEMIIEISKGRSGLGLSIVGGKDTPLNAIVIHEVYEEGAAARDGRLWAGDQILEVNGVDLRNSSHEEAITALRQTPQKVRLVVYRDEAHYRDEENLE
Set-up: key: below the threshold = too weak to quantify, mostly under pKd 3.1 to 4

Binder | pKd
B1 | below the threshold
B2 | below the threshold
B3 | 3.98
B4 | below the threshold

These binders were tested against T7, LNX2_2, Q8N448 (assay: holdup assay). Details: plain residues with an end cap or a label only (N-terminal biotin on a linker: ado-ado).
Set-up: key: below the threshold = too weak to quantify, mostly under pKd 3.1 to 4

Binder | pKd
B1 | below the threshold
B2 | 3.52
B3 | below the threshold
B4 | below the threshold

The binders below were run against MAGI1_1, Q96QZ7 (assay: holdup assay). Details: plain residues with an end cap or a label only (N-terminal biotin on a linker: ado-ado).
Sequence of MAGI1_1, Q96QZ7 (Q96QZ7 1-106): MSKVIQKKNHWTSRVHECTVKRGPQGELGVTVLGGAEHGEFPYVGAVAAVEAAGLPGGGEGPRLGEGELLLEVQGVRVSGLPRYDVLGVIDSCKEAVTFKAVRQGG
Set-up: key: below the threshold = too weak to quantify, mostly under pKd 3.1 to 4

Binder | pKd
B1 | below the threshold
B2 | below the threshold
B3 | below the threshold
B4 | below the threshold

The binders below were run against T8, MPP2, Q14168 (assay: holdup assay). Details: plain residues with an end cap or a label only (N-terminal biotin on a linker: ado-ado).
Set-up: key: below the threshold = too weak to quantify, mostly under pKd 3.1 to 4

Binder | pKd
B1 | below the threshold
B2 | below the threshold
B3 | below the threshold
B4 | below the threshold

What follows are binders tested against T9, NHERF3_1, Q5T2W1 (assay: holdup assay). Details: plain residues with an end cap or a label only (N-terminal biotin on a linker: ado-ado).
Set-up: key: below the threshold = too weak to quantify, mostly under pKd 3.1 to 4

Binder | pKd
B1 | 4.39
B2 | 4.15
B3 | below the threshold
B4 | 4.34

What follows are binders tested against T10, NHERF3_3, Q5T2W1 (assay: holdup assay). Details: plain residues with an end cap or a label only (N-terminal biotin on a linker: ado-ado).
Set-up: key: below the threshold = too weak to quantify, mostly under pKd 3.1 to 4

Binder | pKd
B1 | below the threshold
B2 | below the threshold
B3 | below the threshold
B4 | below the threshold

Each binder was assayed against NOS1, P29475 (assay: holdup assay). Details: plain residues with an end cap or a label only (N-terminal biotin on a linker: ado-ado).
Sequence of NOS1, P29475 (P29475 9-101): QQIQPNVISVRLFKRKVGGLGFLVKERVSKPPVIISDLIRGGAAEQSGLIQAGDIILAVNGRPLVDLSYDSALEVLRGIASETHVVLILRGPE
Set-up: key: below the threshold = too weak to quantify, mostly under pKd 3.1 to 4

Binder | pKd
B1 | below the threshold
B2 | below the threshold
B3 | below the threshold
B4 | below the threshold

Each binder was assayed against PDLIM1, O00151 (assay: holdup assay). Details: plain residues with an end cap or a label only (N-terminal biotin on a linker: ado-ado).
Sequence of PDLIM1, O00151 (O00151 1-87): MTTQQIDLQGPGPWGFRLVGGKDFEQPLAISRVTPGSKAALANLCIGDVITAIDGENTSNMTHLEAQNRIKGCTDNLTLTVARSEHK
Set-up: key: below the threshold = too weak to quantify, mostly under pKd 3.1 to 4

Binder | pKd
B1 | below the threshold
B2 | below the threshold
B3 | below the threshold
B4 | 3.83

What follows are binders tested against PICK1, Q9NRD5 (assay: holdup assay). Details: plain residues with an end cap or a label only (N-terminal biotin on a linker: ado-ado).
Sequence of PICK1, Q9NRD5 (Q9NRD5 17-115): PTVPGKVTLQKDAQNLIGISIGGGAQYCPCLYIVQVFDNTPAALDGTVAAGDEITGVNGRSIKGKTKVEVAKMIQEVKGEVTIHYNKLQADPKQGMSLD
Set-up: key: below the threshold = too weak to quantify, mostly under pKd 3.1 to 4

Binder | pKd
B1 | below the threshold
B2 | 4
B3 | 4.21
B4 | below the threshold

The binders below were run against T11, RHPN1, Q8TCX5 (assay: holdup assay). Details: plain residues with an end cap or a label only (N-terminal biotin on a linker: ado-ado).
Set-up: key: below the threshold = too weak to quantify, mostly under pKd 3.1 to 4

Binder | pKd
B1 | below the threshold
B2 | 4.44
B3 | below the threshold
B4 | below the threshold

The binders below were run against T12, SYNJ2BP, P57105 (assay: holdup assay). Details: plain residues with an end cap or a label only (N-terminal biotin on a linker: ado-ado).
Set-up: key: below the threshold = too weak to quantify, mostly under pKd 3.1 to 4

Binder | pKd
B1 | below the threshold
B2 | 4.02
B3 | below the threshold
B4 | below the threshold
